According to US20200206198A1, “CFTR CHANNEL ACTIVATOR FOR USE IN THE TREATMENT AND/OR PREVENTION OF GLUTEN SENSITIVITY CONDITIONS” (priority 2017, published 2020):

Target: T1, CFTR (Homo sapiens, UniProt P13569)
T1 construct: Immunoprecipitations of endogenous proteins were performed on 500 μg of lysates from Caco-2 cells; host or cells: Caco-2, T84
Assay: CFTR channel function in intestinal epithelial cells (forskolin-induced Isc in Ussing chambers; SPQ iodide efflux)
Assay type: cell-based
Protocol: Human colon adenocarcinoma-derived Caco-2 and T84 cells (Barone, M. V. et al. 2014; Luciani, A. et al. 2010) were obtained from the ATCC. Cells were maintained in T25 flask in Modified Eagle Medium (MEM) for Caco-2, or Ham's F12+DMEM (1:1) for T84, supplemented with 10% fetal bovine serum (FBS), 2 mM Glutamine+1% Non Essential Amino Acids (NEAA) and the antibiotics penicillin\streptomycin (100 units/ml) (all reagents from Lonza). Caco-2 cells were grown in Transwells (Corning, 3470 or 3460) under the normal condition. Briefly, 8×10^4 or 5×10^5 cells were seeded in 6.5-mm diameter or 12-mm diameter, respectively, and grown until the RT reached 800 to 1,200 Ω·cm^2. Transwells with a pore size of 0.4 μm were used. Medium in both the apical and baso lateral chambers was changed every other day. Cells were treated with 20 μg/ml of either with the α-gliadin peptide comprising the P31-43 amino acid sequence of α-gliadin LGQQQPFPPQQPY (SEQ ID 1) (below referred to as P31-43), which is known to induce an enterocyte stress response (Meresse, B. et al.2009; Barone, M. V. et al. 2014; Luciani, A. et al. 2010), the T-cell activating α-gliadin peptide comprising the P57-68 amino acid sequence of α-gliadin (QLQPFPQPQLPY SEQ ID 2)) (below referred to as P57-68) (Maiuri, L., et al. 2003; Meresse, B. et al.2009; 30 Barone, M. V. et al. 2014), or the scrambled GAVAAVGVVAGA (SEQ ID 3) control peptide (below referred to as PGAV), or with different modified P31-43, either biotin-tagged or not, for different time points (from 1 h short challenge up to 24 h). Cells were also treated with 50 or 100 5 μg/ml of P57-68 or PGAV peptides for 3 h.
Caco-2 or T84 cells were also treated with: CFTR potentiators VX-770 (Ivacaftor) (10 μM) or VX-532 (20 μM) (Selleck chemicals) or Genistein (10 μM) (Verkman, A. S. et al. 2005; Jih, K. Y. et al. 2013) (Sigma-Aldrich) or in presence or absence of CFTR inhibitor172 (CFTRinh172, 20 μM).
Human colon adenocarcinoma-derived Caco-2 and T84 cells were obtained from the ATCC. Cells were maintained in T25 flask in Modified Eagle Medium (MEM) for Caco-2, or Ham's F12+DMEM (1:1) for T84, supplemented with 10% fetal bovine serum (FBS), 2 mM Glutamine+1% Non Essential Amino Acids (NEAA) and the antibiotics penicillin\streptomycin (100 units/ml) (all reagents from Lonza) (Luciani, A., et al. 2010. Cells were grown in Transwells (Corning, 3470 or 3460) under the normal condition (Luciani, A., et al. 2012). Briefly, 8×10^4 or 5×10^5 cells were seeded in 6.5-mm diameter or 12-mm diameter, respectively, and grown until the RT reached 800 to 1,200 Ω·cm2. Transwells with a pore size of 0.4 μm were used. Medium in both the apical and basolateral chambers was changed every other day. […]

T1 sequence (P13569 whole entry): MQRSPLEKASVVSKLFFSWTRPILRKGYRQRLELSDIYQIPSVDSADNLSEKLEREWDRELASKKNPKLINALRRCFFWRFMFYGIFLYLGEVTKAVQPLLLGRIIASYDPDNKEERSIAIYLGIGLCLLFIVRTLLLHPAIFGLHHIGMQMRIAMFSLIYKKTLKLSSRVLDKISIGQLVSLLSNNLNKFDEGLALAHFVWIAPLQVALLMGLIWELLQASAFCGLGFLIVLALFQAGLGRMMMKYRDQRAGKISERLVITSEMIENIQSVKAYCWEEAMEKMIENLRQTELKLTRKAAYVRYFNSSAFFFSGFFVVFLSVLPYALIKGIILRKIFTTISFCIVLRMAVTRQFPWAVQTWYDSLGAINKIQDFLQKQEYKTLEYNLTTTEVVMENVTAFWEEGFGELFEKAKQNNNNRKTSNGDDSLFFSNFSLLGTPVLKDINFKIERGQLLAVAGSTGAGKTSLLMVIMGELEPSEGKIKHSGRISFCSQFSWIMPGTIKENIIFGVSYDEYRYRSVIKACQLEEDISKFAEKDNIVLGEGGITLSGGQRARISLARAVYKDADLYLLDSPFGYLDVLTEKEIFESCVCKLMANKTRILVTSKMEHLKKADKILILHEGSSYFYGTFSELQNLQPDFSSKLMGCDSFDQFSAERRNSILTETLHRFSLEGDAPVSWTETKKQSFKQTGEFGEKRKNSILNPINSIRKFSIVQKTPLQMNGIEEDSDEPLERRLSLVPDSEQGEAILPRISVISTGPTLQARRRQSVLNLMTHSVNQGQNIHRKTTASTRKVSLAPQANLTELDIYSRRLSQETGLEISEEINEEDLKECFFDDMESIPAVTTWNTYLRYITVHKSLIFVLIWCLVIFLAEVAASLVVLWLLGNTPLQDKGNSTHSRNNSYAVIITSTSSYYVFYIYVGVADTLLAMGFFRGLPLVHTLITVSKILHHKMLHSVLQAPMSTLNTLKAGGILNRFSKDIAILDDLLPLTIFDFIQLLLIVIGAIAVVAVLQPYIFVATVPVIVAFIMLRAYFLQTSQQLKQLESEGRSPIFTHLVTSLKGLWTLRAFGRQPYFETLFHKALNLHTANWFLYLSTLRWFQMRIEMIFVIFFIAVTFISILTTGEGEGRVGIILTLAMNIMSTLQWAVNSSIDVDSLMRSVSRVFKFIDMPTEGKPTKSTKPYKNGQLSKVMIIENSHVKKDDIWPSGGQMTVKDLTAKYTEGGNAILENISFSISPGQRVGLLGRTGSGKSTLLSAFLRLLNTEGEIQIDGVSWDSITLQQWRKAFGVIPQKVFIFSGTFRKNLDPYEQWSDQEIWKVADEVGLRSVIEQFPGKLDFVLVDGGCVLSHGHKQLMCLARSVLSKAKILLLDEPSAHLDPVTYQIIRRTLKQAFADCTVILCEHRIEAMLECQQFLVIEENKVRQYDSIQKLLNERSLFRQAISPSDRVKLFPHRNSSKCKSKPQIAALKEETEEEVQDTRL

| Compound | reduction of CFTR channel function in response to forskolin (20 μg/ml peptide, intestinal epithelial cells (Caco-2, T84)) | prevention of P31-43 induced decrease of CFTR function (VX-770 10 μM, VX-532 20 μM, Genistein 10 μM, Caco-2 or T84 cells) |
| --- | --- | --- |
| α-gliadin peptide LGQQQPFPPQQPY (SEQ ID 1), induces an enterocyte stress response (P31-43 sequence of alpha-gliadin) | did reduce CFTR channel function |  |
| CC(C)(C)c1cc(C(C)(C)C)c(NC(=O)c2c[nH]c3ccccc3c2=O)cc1O [VX-770, N-(2,4-di-tert-butyl-5-hydroxyphenyl)-4-oxo-1,4-dihydroquinoline-3-carboxamide] |  | Prevents P31-43 Induced Inhibition of CFTR Function |
